We go through 77 sequences from the supplement of paper PMC7877785.

This data set can be described thus: self-splicing fitness, log relative to wild type (ln ratio); higher = more splicing; Tetrahymena group I intron in knt gene, E. coli kanamycin selection, DiMSum; sequences stand for … in CUCUCU…GGAGGGAAAAGUUAUCAGGCAUGCACCUGGUAGCUAGUCUUUAAACCAAUAGAUUGCAUCGGUUUAAAAGGCAAGACCGUCAAAUUGCGGGAAAGGGGUCAACAGCCGUUCAGUACCAAGUCUCAGGGGAAACUUUGAGAUGGCCUUGCAAAGGGUAUGGUAAUAAGCUGACGGACAUGGUCCUAACCACGCAGCCAAGUCCUAAGUCAACAGAUCUUCUGUUGAUAUGGAUGCAGUUCACAGACUAAAUGUCGGUCGGGGAAGAUGUAUUCUUCUCAUAAGAUAUAGUCGGACCUCUCCUUAAUGGGAGCUAGCGGAUGAAGUGAUGCAACACUGGAGCCGCUGGGAACUAAUUUGUAUGCGAAAGUAUAUUGAUUAGUUUUGGAGUACUCGUGGUCG
In outline:
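Six replicate transformations of E. coli BL21(DE3) with a pET-22b(+) library were grown overnight at 37°C or 30°C. The library randomised all eight P1ex-region intron nucleotides, the intron lying in the knt kanamycin-resistance gene, and plates were LB agar with or without 25 μg/mL kanamycin plus 100 μg/mL carbenicillin, 50 μM IPTG and 0.2% rhamnose. Pooled colonies were amplicon-sequenced on an Illumina HiSeq 2500, and fitness is the DiMSum error-weighted combination of wild-type-normalised replicate fold changes, kanamycin versus none.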

± gives the uncertainty stated by the source.

On to ACUCAGCAAUAUUACGGCUG, for which the “self-splicing fitness (ln)” value is -2.36 ± 0.21 (30 °C) and -2.86 ± 0.29 (37 °C).
The corresponding values for CAUCAGCAAUAUUACGCGGC are -3.39 ± 0.2 and -2.8 ± 0.29.
In the case of UCGCAGCAAUAUUACGUAUA, the “self-splicing fitness (ln)” value reads like this: (30 °C) -1.82 ± 0.11; (37 °C) -0.691 ± 0.12.
On to GUAAAGCAAUAUUACGGCGG, for which the “self-splicing fitness (ln)” value (30 °C) was -1.39 ± 0.1 and the “self-splicing fitness (ln)” value (37 °C) is -1.76 ± 0.16.
As for AGUGAGCAAUAUUACGGCCU, the “self-splicing fitness (ln)” value runs as follows: (30 °C) -0.495 ± 0.13; (37 °C) 0.416 ± 0.15.
The corresponding values for GCGAAGCAAUAUUACGCCUG are -2.26 ± 0.19 and -2.16 ± 0.24.
AAACAGCAAUAUUACGGGGC: the “self-splicing fitness (ln)” value is -3.85 ± 0.16 (30 °C) and -3.51 ± 0.19 (37 °C).
For CAGAAGCAAUAUUACGCAUA, the “self-splicing fitness (ln)” value reads like this: (30 °C) -3.68 ± 0.24; (37 °C) -2.02 ± 0.18.
For the sequence GCGAAGCAAUAUUACGCAGG, the “self-splicing fitness (ln)” value is -3.06 ± 0.27 (30 °C) and -2.39 ± 0.23 (37 °C).
Take GGAUAGCAAUAUUACGAAGU: the “self-splicing fitness (ln)” value runs as follows: (30 °C) -2.68 ± 0.29; (37 °C) -2.02 ± 0.25.
Take GUGUAGCAAUAUUACGAGGA: the “self-splicing fitness (ln)” value (30 °C) was -2.9 ± 0.44.
In the case of UGCCAGCAAUAUUACGCUUA, the “self-splicing fitness (ln)” value by setting is: (30 °C) -0.602 ± 0.063; (37 °C) 0.791 ± 0.084.
For CAUCAGCAAUAUUACGGGGA the same measures were -2.59 ± 0.14 and -1.22 ± 0.12.
As for CUCAAGCAAUAUUACGUCUG, the “self-splicing fitness (ln)” value (30 °C) is -4.24 ± 0.28 and the “self-splicing fitness (ln)” value (37 °C) is -1.36 ± 0.17.
As to GUAGAGCAAUAUUACGUUGG, the “self-splicing fitness (ln)” value is -2.16 ± 0.11 (30 °C) and -2.04 ± 0.15 (37 °C).
On to AAGGAGCAAUAUUACGGGCG, for which the “self-splicing fitness (ln)” value was -4.03 ± 0.39 (30 °C) and -1.87 ± 0.31 (37 °C).
Take AGCCAGCAAUAUUACGGACG: the “self-splicing fitness (ln)” value (30 °C) came out at 0.121 ± 0.072 and the “self-splicing fitness (ln)” value (37 °C) is 0.405 ± 0.094.
With GUACAGCAAUAUUACGGGUU, the “self-splicing fitness (ln)” value (30 °C) was -3.13 ± 0.09 and the “self-splicing fitness (ln)” value (37 °C) is -2.22 ± 0.099.
Take GCGAAGCAAUAUUACGCGGG: the “self-splicing fitness (ln)” value by setting is: (30 °C) -2.26 ± 0.16; (37 °C) -2.72 ± 0.36.
The corresponding values for UACCAGCAAUAUUACGCUAA are -1.14 ± 0.081 and -0.492 ± 0.092.
UACUAGCAAUAUUACGUCAA: the “self-splicing fitness (ln)” value was -1.32 ± 0.21 (30 °C) and -1.25 ± 0.17 (37 °C).
The corresponding values for UCUCAGCAAUAUUACGCUCG are -3.93 ± 0.25 and -2 ± 0.19.
CUGGAGCAAUAUUACGGUAA: the “self-splicing fitness (ln)” value runs as follows: (30 °C) -2.61 ± 0.28; (37 °C) -2.89 ± 0.25.
In the case of GUAUAGCAAUAUUACGGUUA, the “self-splicing fitness (ln)” value (30 °C) was -1.28 ± 0.11 and the “self-splicing fitness (ln)” value (37 °C) was -0.761 ± 0.098.
With GCAAAGCAAUAUUACGGCAC, the “self-splicing fitness (ln)” value reads like this: (30 °C) -0.648 ± 0.081; (37 °C) -0.426 ± 0.09.
For AGCGAGCAAUAUUACGGACA, the “self-splicing fitness (ln)” value is -2.53 ± 0.37 (30 °C) and -2.94 ± 0.34 (37 °C).
The corresponding values for CCAGAGCAAUAUUACGCGAG are -2.77 ± 0.17 and -2.36 ± 0.25.
On to GAAGAGCAAUAUUACGUGCA, for which the “self-splicing fitness (ln)” value (30 °C) was -2.38 ± 0.18 and the “self-splicing fitness (ln)” value (37 °C) is -1.24 ± 0.2.
For the sequence CAGCAGCAAUAUUACGUCCC, where the note is “30 °C”, the “self-splicing fitness (ln)” value is -2.38 ± 0.47.
GGGGAGCAAUAUUACGCGCA: the “self-splicing fitness (ln)” value reads like this: (30 °C) -2.35 ± 0.22; (37 °C) -1.32 ± 0.25.
In the case of GGAUAGCAAUAUUACGACCA, the “self-splicing fitness (ln)” value is -0.97 ± 0.092 (30 °C) and -0.392 ± 0.13 (37 °C).
The corresponding values for GGUUAGCAAUAUUACGUCUA are -0.569 ± 0.12 and -0.565 ± 0.093.
Turning to GCUGAGCAAUAUUACGCGGA, the “self-splicing fitness (ln)” value by setting is: (30 °C) -4.07 ± 0.35; (37 °C) -2.82 ± 0.23.
UGCCAGCAAUAUUACGUUUA: the “self-splicing fitness (ln)” value is -2.56 ± 0.086 (30 °C) and -1.51 ± 0.072 (37 °C).
With UCAAAGCAAUAUUACGAAGA, the “self-splicing fitness (ln)” value (30 °C) was -2.21 ± 0.18 and the “self-splicing fitness (ln)” value (37 °C) is -1.02 ± 0.13.
As to GUCUAGCAAUAUUACGUCCG, the “self-splicing fitness (ln)” value was -2.96 ± 0.28 (30 °C) and -0.525 ± 0.19 (37 °C).
In the case of UUUUAGCAAUAUUACGCCUA, the “self-splicing fitness (ln)” value reads like this: (30 °C) -1 ± 0.2; (37 °C) -0.553 ± 0.22.
As for CUCCAGCAAUAUUACGAAAU, the “self-splicing fitness (ln)” value is -2.83 ± 0.19 (30 °C) and -1.75 ± 0.31 (37 °C).
UGGUAGCAAUAUUACGGACA: the “self-splicing fitness (ln)” value by setting is: (30 °C) -0.879 ± 0.12; (37 °C) 0.135 ± 0.16.
For the sequence AAACAGCAAUAUUACGGCGU, the “self-splicing fitness (ln)” value is -0.571 ± 0.053 (30 °C) and -0.336 ± 0.063 (37 °C).
AGUGAGCAAUAUUACGUAUU: the “self-splicing fitness (ln)” value was -3.27 ± 0.25 (30 °C) and -2.23 ± 0.31 (37 °C).
The corresponding values for AUUAAGCAAUAUUACGCUGA are -2.36 ± 0.41 and -0.862 ± 0.28.
Consider GAAGAGCAAUAUUACGCGGG, for which the “self-splicing fitness (ln)” value is -3.24 ± 0.28 (30 °C) and -2.65 ± 0.41 (37 °C).
In the case of GUCGAGCAAUAUUACGUGCA, the “self-splicing fitness (ln)” value runs as follows: (30 °C) -2.29 ± 0.22; (37 °C) -0.701 ± 0.17.
CCGUAGCAAUAUUACGACUA: the “self-splicing fitness (ln)” value (37 °C) was -1.08 ± 0.25.
Still for that read-out and setting: for GUCGAGCAAUAUUACGCUAA the value was -1.5 ± 0.2.
As for CAAUAGCAAUAUUACGCGCA, the “self-splicing fitness (ln)” value is, setting by setting: (30 °C) -2.68 ± 0.19; (37 °C) -1.7 ± 0.18.
On to UUGCAGCAAUAUUACGUUCA, for which the “self-splicing fitness (ln)” value is, setting by setting: (30 °C) -0.896 ± 0.12; (37 °C) 0.241 ± 0.12.
For GGUAAGCAAUAUUACGGGCG, the “self-splicing fitness (ln)” value by setting is: (30 °C) -0.129 ± 0.097; (37 °C) -0.279 ± 0.13.
Take CACCAGCAAUAUUACGAGGU: the “self-splicing fitness (ln)” value (30 °C) is -3.22 ± 0.12 and the “self-splicing fitness (ln)” value (37 °C) was -2.53 ± 0.16.
In the case of AGGCAGCAAUAUUACGAGAA, the “self-splicing fitness (ln)” value (30 °C) was -3.3 ± 0.41 and the “self-splicing fitness (ln)” value (37 °C) is -2.09 ± 0.36.
Consider GGCUAGCAAUAUUACGGCGA, for which the “self-splicing fitness (ln)” value by setting is: (30 °C) -0.177 ± 0.13; (37 °C) 0.0471 ± 0.14.
As for AUUAAGCAAUAUUACGUUCC, the “self-splicing fitness (ln)” value (30 °C) is -3.07 ± 0.29 and the “self-splicing fitness (ln)” value (37 °C) was -0.839 ± 0.27.
For the sequence CCGGAGCAAUAUUACGGUGC, for the setting “37 °C”, the “self-splicing fitness (ln)” value was -1.63 ± 0.45.
In the case of ACACAGCAAUAUUACGCCCA, the “self-splicing fitness (ln)” value (30 °C) is -1.49 ± 0.075 and the “self-splicing fitness (ln)” value (37 °C) is -0.603 ± 0.073.
The corresponding values for CGCUAGCAAUAUUACGUCGU are -3.7 ± 0.37 and -2.87 ± 0.23.
For GCGUAGCAAUAUUACGAGGA, the “self-splicing fitness (ln)” value (30 °C) is -1.09 ± 0.42.
As for CCGCAGCAAUAUUACGGGUG, the “self-splicing fitness (ln)” value was -1.22 ± 0.055 (30 °C) and -0.741 ± 0.069 (37 °C).
On to AAACAGCAAUAUUACGAACA, for which the “self-splicing fitness (ln)” value was -1.78 ± 0.09 (30 °C) and -0.635 ± 0.084 (37 °C).
In the case of GUACAGCAAUAUUACGAAAA, the “self-splicing fitness (ln)” value was -1.66 ± 0.19 (30 °C) and -2.31 ± 0.25 (37 °C).
The corresponding values for AUUGAGCAAUAUUACGCUUA are -2.75 ± 0.16 and -1.02 ± 0.13.
As to GUACAGCAAUAUUACGUAAG, the “self-splicing fitness (ln)” value is -1.08 ± 0.096 (30 °C) and -0.465 ± 0.11 (37 °C).
For the sequence AAGAAGCAAUAUUACGUUUC, the “self-splicing fitness (ln)” value was -3.62 ± 0.23 (30 °C) and -3.15 ± 0.26 (37 °C).
The corresponding values for UACUAGCAAUAUUACGGACA are -0.57 ± 0.13 and -0.47 ± 0.16.
With AAAUAGCAAUAUUACGAAGA, the “self-splicing fitness (ln)” value reads like this: (30 °C) -2.26 ± 0.26; (37 °C) -1.1 ± 0.17.
For GUUUAGCAAUAUUACGGGGG, the “self-splicing fitness (ln)” value (30 °C) is -3.68 ± 0.37 and the “self-splicing fitness (ln)” value (37 °C) was -1.82 ± 0.26.
Consider CCGGAGCAAUAUUACGUUCG, for which the “self-splicing fitness (ln)” value reads like this: (30 °C) -4.36 ± 0.46; (37 °C) -1.92 ± 0.46.
For AGCGAGCAAUAUUACGUAAC the same measures were -3.79 ± 0.29 and -1.46 ± 0.24.
The corresponding values for CGCCAGCAAUAUUACGACAC are -2.92 ± 0.25 and -1.65 ± 0.26.
As for CCGCAGCAAUAUUACGUAUU, the “self-splicing fitness (ln)” value is, setting by setting: (30 °C) -3.84 ± 0.17; (37 °C) -2.66 ± 0.15.
For UCGGAGCAAUAUUACGUUGG the same measures were -2.09 ± 0.17 and -1.77 ± 0.23.
For CUAAAGCAAUAUUACGUAGA the same measures were -3.64 ± 0.19 and -4.04 ± 0.46.
The corresponding values for GGCCAGCAAUAUUACGACUC are -1.21 ± 0.11 and 0.0572 ± 0.13.
In the case of CACCAGCAAUAUUACGUACC, the “self-splicing fitness (ln)” value was -4.01 ± 0.43 (30 °C) and -1.84 ± 0.33 (37 °C).
Turning to AGCCAGCAAUAUUACGGAUA, the “self-splicing fitness (ln)” value was -1.63 ± 0.11 (30 °C) and -1.51 ± 0.12 (37 °C).
For CCGCAGCAAUAUUACGGAAG, the “self-splicing fitness (ln)” value was -3.05 ± 0.12 (30 °C) and -1.33 ± 0.11 (37 °C).
For the sequence GACUAGCAAUAUUACGGCAG, the “self-splicing fitness (ln)” value by setting is: (30 °C) -2.84 ± 0.14; (37 °C) -2.49 ± 0.23.
